Results reported in patent publication US20250382384A1.

What was measured:
[1] = target: cynomolgus MUC1 SEA domain protein (cynomolgus); assay: SPR, antibody captured, cynoMUC1 SEA analyte
[2] = target: full-length cynomolgus MUC1 on stably transfected cells (cynomolgus); assay: FACS (iQue3) on HEK293-cynoMUC1 cells
Chain of full-length cynomolgus MUC1 on stably transfected cells (cynomolgus) (chain, as listed by the source limits assumed, form in doubt): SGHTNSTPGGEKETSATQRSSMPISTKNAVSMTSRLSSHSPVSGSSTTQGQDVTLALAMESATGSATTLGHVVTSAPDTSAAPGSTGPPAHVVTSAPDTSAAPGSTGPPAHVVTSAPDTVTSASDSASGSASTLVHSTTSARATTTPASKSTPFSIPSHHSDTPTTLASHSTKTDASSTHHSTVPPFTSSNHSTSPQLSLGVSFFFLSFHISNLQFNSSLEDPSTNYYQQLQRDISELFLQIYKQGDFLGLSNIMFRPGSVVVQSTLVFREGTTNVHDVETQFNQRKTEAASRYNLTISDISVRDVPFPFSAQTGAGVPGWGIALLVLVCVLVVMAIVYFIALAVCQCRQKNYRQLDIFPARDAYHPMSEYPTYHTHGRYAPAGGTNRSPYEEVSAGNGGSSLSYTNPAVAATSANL

- Kd [1]: 6.67 nM
- EC50 (read off the curve) [2]: 3 nM
B1: huBG138P-Hz2 (antibody, V domains shown)
VH: QVQLVQSGAEVKKPGASVKVSCKASGYTFTTYTMHWVRQAPGQRLEWMGYINPGSDYTHYNQKFKDRVTITADTSASTAYMELSSLRSEDTAVYYCARQGNYAAYYFDYWGQGTLVTVSS
VL: DIQMTQSPSSLSASVGDRVTITCRASGNIHNFLVWYQQKPGKSPKLLIYNAKTLTSGVPSRFSGSGSGTQYTLTISSLQPEDVATYYCQNFWNVPFTFGQGTKLEIK
